From article doi:10.1101/2025.02.19.639050 (bioRxiv, 2025)

B1: ERBB2-P00873 (antibody, V domains shown)
VH: VQLVESDGGGLVQQGGSLRLSCAASGFNIKDRYIHWVRQAPGKGLEWVARIYPTNGYTRYADRVKGRFTISADTSKNTAYLQMFSLRAEDTAVYYCSRWGGDGFYAMDYWGQGTLVTVSS
VL: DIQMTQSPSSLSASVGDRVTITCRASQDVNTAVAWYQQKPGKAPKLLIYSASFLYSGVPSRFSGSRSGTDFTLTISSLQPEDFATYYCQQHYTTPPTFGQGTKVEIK
notes: as the heavy chain of m2 (trastuzumab, PDB 1N8Z) with changes; as the light chain of m2 (trastuzumab, PDB 1N8Z); Expressed as IgG; also called design of hu4D5 (5 edits, 1 insertion); source: Expi293F, transient (GLFs), purified (Protein A)
B2: seed OSM-N021 (antibody, V domains shown)
VH: EVQLVESGGGLVQPGGSLRLSCAASGFTFNIYSMNWVRQAPGKGLEWISYISGNSNTIYYADSVKGRFTISRDNAKNSVYLQMNSLRDEDTAVYYCARSLLRYFDWLSAFDIWGQGTMVTVSS
VL: EIVLTQSPGTLSLSPGERATLSCRASQSVGSSYLAWYQQRPGQAPRLLIHGASSRATGIPDRFSGSGSGTDFTLTISGLEPEDVAVYYCQQYGSSPLTFGGGTKVEIK
notes: IgG in SPR; the Fab was crystallised; source: Expi293F, transient (GLFs), purified (Protein A)
B3: design 9N7M (antibody, V domains shown)
VH: EVQLVESGGGLVQPGGSLRLSCAASGFTFNIYSMNWVRQAPGKGLEWISYISSGSNTIYYADSVKGRFTISRDNAENSLYLQMNSLRDEDTAVYYCARSGLRYFDWLSYFDIWGQGTLVTVSS
VL: EIVLTQSPGTLSLSPGERATLSCRASQSVGSSYLAWYQQRPGQAPRLLIHGASSRATGIPDRFSGSGSGTDFTLTISGLEPEDVAVYYCQQYGSSPLTFGGGTKVEIK
notes: the Fab of this design is deposited as PDB 9N7M (heavy chain); the Fab of this design is deposited as PDB 9N7M (light chain); IgG in SPR; the Fab (CHO) was crystallised; also called design of seed OSM-N021 with G+Y mutations in the stem region of CDRH3; source: Expi293F, transient (GLFs), purified (Protein A)
B4: design 9N7O (antibody, V domains shown)
VH: EVQLVESGGGLVQPGGSLRLSCAASGFTFTIYSMNWVRQAPGKGLEWISYISSGSNTIYYADSVKGRFTISRDNAKNSLYLQMNSLRDEDTAVYYCARSSLRYFDWLSYFDYWGQGTMVTVSS
VL: EIVLTQSPGTLSLSPGERATLSCRASQSVGSSYLAWYQQRPGQAPRLLIHGASSRATGIPDRFSGSGSGTDFTLTISGLEPEDVAVYYCQQYGSSPLTFGGGTKVEIK
notes: the Fab of this design is deposited as PDB 9N7O (heavy chain); the Fab of this design is deposited as PDB 9N7O (light chain); IgG in SPR; the Fab (CHO) was crystallised; also called design of seed OSM-N021 with S+Y mutations in the stem region of CDRH3; source: Expi293F, transient (GLFs), purified (Protein A)

Assays:
[1] = biological target: T1, Human epidermal growth factor receptor 2 (Homo sapiens, UniProt P04626); assay: SPR; Biacore 8K+; antibody captured on a Protein A chip, antigen injected (typically 0.16, 0.8, 4, 20 and 100 nM; 180 s association, 600 s dissociation, 30 µl/min); HBS-EP buffer pH 7.4, 0.15 M NaCl; single cycle or multi cycle kinetics; 1:1 binding model; settings: both partners purified
T1 construct: ERBB2), the antigen injected in SPR; also called HER2; ERBB2

[2] = biological target: T2, Oncostatin M (Homo sapiens, UniProt P13725); assay: as above; settings: both partners purified
T2 construct: Oncostatin M (OSM), the antigen injected in SPR; also called OSM
T2 sequence (P13725 26-221): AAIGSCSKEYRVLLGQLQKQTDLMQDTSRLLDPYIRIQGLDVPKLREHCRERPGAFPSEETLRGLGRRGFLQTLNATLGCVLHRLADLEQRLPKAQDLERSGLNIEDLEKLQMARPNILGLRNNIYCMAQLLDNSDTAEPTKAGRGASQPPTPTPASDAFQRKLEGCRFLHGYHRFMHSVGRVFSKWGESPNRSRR

Binder	fold improvement in binding relative to trastuzumab (hu4D5) [1]	ΔpKD relative to trastuzumab (hu4D5) [1]	binding result [2]	fold improvement in affinity relative to the seed OSM-N021 [2]	ΔpKD relative to the seed OSM-N021 [2]
B1	> 4 fold	0.688			
B2			binds		
B3				3.6 fold	0.56
B4				~4.5 fold	0.65
